This is an account of results in article PMC5973619.

Broadly, the stoichiometry N is a count of units in the complex or per binding partner.

The target of the test is T1, Sun2 (human (endogenous in HeLa and RPE-1)), Q9UH99.
T1 chain: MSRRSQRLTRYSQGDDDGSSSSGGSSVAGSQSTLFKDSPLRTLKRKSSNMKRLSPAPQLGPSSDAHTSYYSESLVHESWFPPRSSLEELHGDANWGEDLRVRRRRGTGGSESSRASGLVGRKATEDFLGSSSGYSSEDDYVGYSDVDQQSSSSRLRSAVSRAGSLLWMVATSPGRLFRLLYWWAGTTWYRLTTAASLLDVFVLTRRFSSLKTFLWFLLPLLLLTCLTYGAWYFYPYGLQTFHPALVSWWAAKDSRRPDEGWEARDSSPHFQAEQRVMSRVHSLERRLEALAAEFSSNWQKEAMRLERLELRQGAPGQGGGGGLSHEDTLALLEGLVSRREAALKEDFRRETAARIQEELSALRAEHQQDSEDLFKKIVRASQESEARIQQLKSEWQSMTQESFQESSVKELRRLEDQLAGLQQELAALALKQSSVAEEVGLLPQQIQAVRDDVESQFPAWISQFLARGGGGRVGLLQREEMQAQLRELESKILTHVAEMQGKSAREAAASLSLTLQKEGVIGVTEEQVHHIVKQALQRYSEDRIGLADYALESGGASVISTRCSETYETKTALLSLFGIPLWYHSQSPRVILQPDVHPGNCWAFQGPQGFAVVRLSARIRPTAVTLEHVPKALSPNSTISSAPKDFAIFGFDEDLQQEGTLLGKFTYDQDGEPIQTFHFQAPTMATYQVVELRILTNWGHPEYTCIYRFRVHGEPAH
The experiment in a line: cross-linking; HeLa cells in PBS containing .5% formaldehyde for 10min room temperature before lysis; reducing SDS-PAGE and blot for Sun1 and Sun2. Particulars: remark: other sources report otherwise.

B1: Sun2, Q9UH99 1-717 (natural protein)
chain: MSRRSQRLTRYSQGDDDGSSSSGGSSVAGSQSTLFKDSPLRTLKRKSSNMKRLSPAPQLGPSSDAHTSYYSESLVHESWFPPRSSLEELHGDANWGEDLRVRRRRGTGGSESSRASGLVGRKATEDFLGSSSGYSSEDDYVGYSDVDQQSSSSRLRSAVSRAGSLLWMVATSPGRLFRLLYWWAGTTWYRLTTAASLLDVFVLTRRFSSLKTFLWFLLPLLLLTCLTYGAWYFYPYGLQTFHPALVSWWAAKDSRRPDEGWEARDSSPHFQAEQRVMSRVHSLERRLEALAAEFSSNWQKEAMRLERLELRQGAPGQGGGGGLSHEDTLALLEGLVSRREAALKEDFRRETAARIQEELSALRAEHQQDSEDLFKKIVRASQESEARIQQLKSEWQSMTQESFQESSVKELRRLEDQLAGLQQELAALALKQSSVAEEVGLLPQQIQAVRDDVESQFPAWISQFLARGGGGRVGLLQREEMQAQLRELESKILTHVAEMQGKSAREAAASLSLTLQKEGVIGVTEEQVHHIVKQALQRYSEDRIGLADYALESGGASVISTRCSETYETKTALLSLFGIPLWYHSQSPRVILQPDVHPGNCWAFQGPQGFAVVRLSARIRPTAVTLEHVPKALSPNSTISSAPKDFAIFGFDEDLQQEGTLLGKFTYDQDGEPIQTFHFQAPTMATYQVVELRILTNWGHPEYTCIYRFRVHGEPAH
Take B1: the stoichiometry N came to 3.
